{
  "source": "patent US20250012721A1",
  "about": "“FLUORESCENCE DETECTION KIT FOR ACTIVATED COMPLEMENT C1s, DETECTION METHOD USING SAME, AND USE THEREOF” (JIANGSU UNIVERSITY, priority 2022, published 2025)",
  "target": "T1, activated C1s (Homo sapiens, UniProt P09871)",
  "T1 construct": "purchased Complement Technology",
  "T1 sequence (P09871 16-437 limits assumed)": "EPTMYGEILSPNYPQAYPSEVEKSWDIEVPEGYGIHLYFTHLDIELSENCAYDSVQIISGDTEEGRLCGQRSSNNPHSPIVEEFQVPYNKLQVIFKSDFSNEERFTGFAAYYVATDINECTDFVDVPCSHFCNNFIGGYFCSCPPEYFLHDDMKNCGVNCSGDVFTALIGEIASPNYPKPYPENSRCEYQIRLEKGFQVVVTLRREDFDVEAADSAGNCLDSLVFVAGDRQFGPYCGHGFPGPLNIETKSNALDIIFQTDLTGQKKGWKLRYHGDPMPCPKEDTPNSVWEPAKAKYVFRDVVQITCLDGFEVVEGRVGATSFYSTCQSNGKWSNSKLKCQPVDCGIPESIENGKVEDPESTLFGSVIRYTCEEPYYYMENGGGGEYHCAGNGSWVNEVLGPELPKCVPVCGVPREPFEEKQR",
  "T1 sequence (P09871 438-688 limits assumed)": "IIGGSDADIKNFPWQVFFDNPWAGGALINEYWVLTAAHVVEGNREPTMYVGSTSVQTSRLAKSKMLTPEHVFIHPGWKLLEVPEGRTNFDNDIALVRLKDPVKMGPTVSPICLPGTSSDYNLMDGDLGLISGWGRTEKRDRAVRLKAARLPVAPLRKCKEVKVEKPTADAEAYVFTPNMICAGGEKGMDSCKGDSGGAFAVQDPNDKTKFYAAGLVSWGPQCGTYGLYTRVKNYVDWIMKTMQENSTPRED",
  "assay": "Anti-interference experiment of fluorescence detection method for activated C1s",
  "type": "biochemical",
  "conditions": "for measured activated C1s enzymatic activity: n = 4",
  "method": "• 1. Preparation of a buffer: 1) Binding Buffer: 0.1 M morpholinoethanesulfonic acid (MES, pH=5.0); • 2) Washing Buffer: TBS containing 0.05% Tween 20; • 3) Blocking Buffer: containing 0.05 M Tris, 1.0% BSA, and 0.05% Tween 20; • 4) Desired Buffer: Tris buffer containing 0.05% Tween 20 and BSA; and • 5) Tris Buffer: 0.05 M Tris, 0.15 M NaCl, and 0.2% (w/v) polyethylene glycol 8000. • 2. Preparation of immunomagnetic beads (C1s recombinant antibody-coupled magnetic beads) • (1) 10 mg of magnetic beads (Merck carboxyl magnetic beads, with a particle size of 1 μm) were washed 3 times with 1 mL of Binding Buffer, and vortexed to mix evenly. • (2) 20 μg of the C1s recombinant antibody obtained in Example 1 was added into every 1 mg of the magnetic beads, mixed well, and vortexed at a room temperature (25° C.) for 15 min. • (3) 50 μg of a coupling agent was added into every 1 mg of the magnetic beads, mixed well, and vortexed at a room temperature for 1 h. • (4) 1 mL of Binding Buffer was added and vortexed at a room temperature for 3 h. • (5) The magnetic beads were washed 4 times with 0.5 mL of Washing Buffer. • (6) The magnetic beads were resuspended with 1 mL of Desired Buffer to obtain C1s recombinant antibody-coupled magnetic beads with a concentration of 5 mg/mL, and stored at 4° C. until later use. • 3. Detection of the enzymatic activity of activated C1s • (1) 60 μL of the C1s recombinant antibody-coupled magnetic beads were stirred evenly, subjected to magnetic suction to remove a supernatant, added with 200 μL of PBS to mix well, subjected to the magnetic suction to remove a supernatant, and washed repeatedly 2 times. • (2) 10 μL of a sample to be tested or activated C1s standards with different concentrations were diluted to 100 μL with PBS, and mixed vertically with the C1s recombinant antibody-coupled magnetic beads at a room temperature for 10 min. The magnetic suction was performed to discard a supernatant. According to the enzymatic activity of the C1s standard determined in Example 4, the enzymatic activity conversion of the C1s standards with different concentrations is shown in Table 2.\n• (3) The magnetic beads were repeatedly washed 3 times with 100 μL of PBS. • (4) The magnetic beads were resuspended with 90 μL of Tris buffer. • (5) 10 μL of substrate peptide 3 was added at a concentration of 1 μg/mL. • (6) The detection was performed with a microplate reader at 360/40 excitation light wave and 460/40 emission light wave, with a best reaction time of 1 h as a detection point, and the fluorescence signals were measured and recorded. The straight line fitting was performed by taking a C1s enzymatic activity as an abscissa and a fluorescence signal as an ordinate with a double logarithmic Log-Log mathematical model and using a least square method to plot a standard curve.\nThe possibility that bilirubin, chyle, and hemoglobin in clinical samples cause interference in the experiment was taken into account. Referring to the interference check A kit, high-, medium-, and low-concentration standards were added with different concentrations of bilirubin (with final concentrations of 0 mg/mL, 0.06 mg/mL, 0.14 mg/mL, and 0.20 mg/mL, respectively), chyle (with final concentrations of 0 FTU, 600 FTU, 1,400 FTU, and 2,000 FTU, respectively), and a hemoglobin solution (with final concentrations of 0 mg/mL, 1.5 mg/mL, 3.5 mg/mL, and 5 mg/mL, respectively). The measured high, medium and low average concentrations containing different interfering substances were subtracted from the corresponding average concentrations without interfering substances, and a difference and a percentage of the difference in an average concentration of a blank control without interfering substances were calculated.",
  "data": [
    {"substance": "Hemoglobin: hemoglobin solution, interfering substance from interference check A kit", "values": [
      {"measurement": "measured activated C1s enzymatic activity", "setting": "High value standard, hemoglobin 1.5 mg/mL", "value": "60.57 ± 3.66", "unit": "pmol/min/µg"},
      {"measurement": "measured activated C1s enzymatic activity", "setting": "High value standard, hemoglobin 3.5 mg/mL", "value": "56.23 ± 4.58", "unit": "pmol/min/µg"},
      {"measurement": "measured activated C1s enzymatic activity", "setting": "High value standard, hemoglobin 5 mg/mL", "value": "59.50 ± 5.13", "unit": "pmol/min/µg"},
      {"measurement": "measured activated C1s enzymatic activity", "setting": "Low value standard, hemoglobin 1.5 mg/mL", "value": "6.00 ± 0.59", "unit": "pmol/min/µg"},
      {"measurement": "measured activated C1s enzymatic activity", "setting": "Low value standard, hemoglobin 3.5 mg/mL", "value": "6.2 ± 0.56", "unit": "pmol/min/µg"},
      {"measurement": "measured activated C1s enzymatic activity", "setting": "Low value standard, hemoglobin 5 mg/mL", "value": "6.37 ± 0.51", "unit": "pmol/min/µg"},
      {"measurement": "measured activated C1s enzymatic activity", "setting": "Medium value standard, hemoglobin 1.5 mg/mL", "value": "29.47 ± 1.15", "unit": "pmol/min/µg"},
      {"measurement": "measured activated C1s enzymatic activity", "setting": "Medium value standard, hemoglobin 3.5 mg/mL", "value": "28.16 ± 2.68", "unit": "pmol/min/µg"},
      {"measurement": "measured activated C1s enzymatic activity", "setting": "Medium value standard, hemoglobin 5 mg/mL", "value": "28.23 ± 1.45", "unit": "pmol/min/µg"},
      {"measurement": "interference with the detection method", "setting": "hemoglobin 5 mg/mL", "value": "not interfered"}
    ]}
  ]
}
